{"source": "paper PMC3440371", "about": "“Non-Covalent Interaction between Polyubiquitin and GTP Cyclohydrolase 1 Dictates Its Degradation” (PLoS ONE, 2012)", "binders": {"B1": {"name": "FLAG-GTPCH1 I131L (natural protein, human, UniProt P30793 1-250, looked up)", "chain": "MEKGPVRAPAEKPRGARCSNGFPERDPPRPGPSRPAEKPPRPEAKSAQPADGWKGERPRSEEDNELNLPNLAAAYSSILSSLGENPQRQGLLKTPWRAASAMQFFTKGYQETISDVLNDAIFDEDHDEMVLVKDIDMFSMCEHHLVPFVGKVHIGYLPNKQVLGLSKLARIVEIYSRRLQVQERLTKQIAVAITEALRPAGVGVVVEATHMCMVMRGVQKMNSKTVTSTMLGVFREDPKTREEFLTLIRS", "notes": "GTP cyclohydrolase 1 (GTPCH1), human, full-length GCH1 cDNA with the point mutation I131L; also called FLAG-GCH1 I131L; source: HEK293, transfected (pCI-neo), in lysate; not shown: FLAG, C-terminal, kept"}}, "target": "T1, polyubiquitin chains, endogenous in HEK293 cells (human (endogenous in HEK293), UniProt P0CG48 1-76)", "T1 construct": "ubiquitin (76 amino acids), cut product of the polyubiquitin precursor, joined into endogenous polyubiquitin chains; Precipitated or detected with a polyclonal ubiquitin antibody; seen as smeared bands; source: endogenous, HEK293 lysate", "experiment": "co-IP; lysates of HEK293 cells transfected with FLAG-GCH1 or mutants for 2 days, immunoprecipitated with the ubiquitin antibody and protein A/G beads; blot with FLAG antibody; empty vector as control", "settings": "partners not purified", "data": [{"binder": "B1", "values": [{"measurement": "fold change of ubiquitin binding against wild-type FLAG-GTPCH1", "result": "~4.5", "unit": "fold"}]}]}
